{"source": "patent US20090188010A1", "about": "(HEXIMA, published 2009)", "binders": {"B1": {"name": "recombinant C1 inhibitor with N-terminal hexahistidine tag, expressed in E. coli (other)", "chain": "DRICTNCCAGTKGCKYFSDDGTFVCEGESDPRNPKACTLNCDPRIAYGVCPRSEEKKN", "notes": "also called 6H.C1; not shown: hexahistidine tag at the N-terminus from the pQE-30 vector"}}, "biological_target": "T1, NaPI-insensitive chymotrypsin from H. punctigera (HpCh5), native enzyme from the larval gut (Helicoverpa punctigera)", "T1 construct": "also called NaPI-insensitive protease; Rech1a", "T1 sequence (chain, as listed by the source limits assumed)": "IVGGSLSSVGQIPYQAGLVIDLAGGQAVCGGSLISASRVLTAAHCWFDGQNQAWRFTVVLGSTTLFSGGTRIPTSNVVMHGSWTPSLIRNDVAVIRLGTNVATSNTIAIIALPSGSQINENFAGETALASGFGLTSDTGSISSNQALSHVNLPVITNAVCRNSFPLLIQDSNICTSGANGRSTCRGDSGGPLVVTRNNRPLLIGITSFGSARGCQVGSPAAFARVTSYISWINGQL", "experiment": "affinity column of immobilized recombinant C1, trypsin-depleted gut extract passed through", "protocol": "The midgut was dissected from 80 fourth instar larvae and buffer soluble extracts were prepared. The gut extract was depleted of trypsins by repeated passage through a benzamidine-Sepharose affinity column. […] This column was expected to specifically bind NaPI-sensitive chymotrysins.\nThe filtered gut extract was passed through the benzamidine column five times to remove the trypsins.", "data": [{"binder": "B1", "values": [{"measurement": "binding result", "value": "no binding"}]}]}
